The results in this text go back to paper PMC11667159 (The Journal of Biological Chemistry, 2024).

First the molecules themselves.
B1: dimeric S100B (human, recombinant) (natural protein)
chain: MSELEKAMVALIDVFHQYSGREGDKHKLKKSELKELINNELSHFLEEIKEQEVVDKVMETLDNDGDGECDFQEFMAFVAMVTTACHEFFEHE
B2: Nb9 (VHH)
VHH: QVQLVESGGGLVQAGESLRLSCAASGAVFRIFAVNWWRQAPGKQRELVATITSAGDTKYHDSVKGRFTISRDNAKNTVALQMNNLKPEDTAVYQCNVLKYWGQGTQVTVSS
B3: Nb10 (VHH)
VHH: QVQLVESGGGLVQAGESLRLSCAASGAVFRIFAVNWWRQAPGKQRELVATITSAGDTKYHDSVKGRFTISRDIAKNTVALQMNNLKPEDTAVYQCNVLKYWGQGTQVTVSS
B4: Nb3 (VHH)
VHH: QVQLVESGGGLVQAGRSLRLSCAASGRSFSIFAVNWWRQAPGNQRELVASITGGGSIRYADSVKGRFTISRDNAENTVYLQMNSLKPEDTAVYYCNTLNFWGQGTQVTVSS
B5: Nb4 (VHH)
VHH: QVQLVESGGGLVQAGRSLRLSCAASGRSFSIFGVNWFRQAPENQRELVASITGGGSIRYADSVTGRFTISRDNAENTVYLQMNSLKPEDTAVYYCNILNFWGQGTQVTVSS
B6: Nb5 (VHH)
VHH: QVQLVESGGGLVQAGGSQRLSCTASGRIFSINDMGWYRQAPGDQRELVAVITSGGATNYTDSVKGRFTISRDDAKNTVYLQMNSLKPEDTAVYYCNADLRTSLKWPPVFHRYWGQGTQVTVSS
B7: Nb8 (VHH)
VHH: QVQLVESGGGLVQAGGSLRLACVTSGNIFSISFMRWYRQAPGKQRELVATITSGDRTTYADSVKGRFTISRDNAKNTVYLQMNSLEPEDTAVYYCDINGLRYAGIRSWGQGTQVTVSS
B8: Nb13 (VHH)
VHH: QVQLVESGGGLVQPGGSLMLSCAASGFDFATYPMSWVRQAPGKEPEWIASIFPNGVTQSCADSVLGRFTISRDNTKNTLFLEMDRLKLADTAVYYCSKGGAAQSMFDDYWGQGTQVTVSS
B9: Nb2 (VHH)
VHH: QVQLVESGGGWVQAGGSLRLSCTASGSGFGIFAINWFRQAPGKERELVASLSSIGSPKYAESVKGRFTISRDNAKNTVYLQMNSLKPEDTAVYYCNYLNRWGQGTQVTVSS
B10: Nb6 (VHH)
VHH: QVQLVESGGGLVQAGGSLRLSCAASGNILRLNAMAWYRQAPGKQRELVAYITYKGPTNYAESVKGRFTISRDMAKNTVYLQMNSLKPEDTAAYYCNADYIRTPGPFWGQGTQVTVSS
B11: Nb7 (VHH)
VHH: QVQLVESGGGLVQAGGSLRLSCAASGNILRLNAMAWYRQAPGKQRELVADNTFKGPTNYADSVKGRFTISRDMAKNTVYLQMNSLKPEDTAAYYCNADYIRTPGHFWGQGTQVTVSS
B12: Nb11 (VHH)
VHH: QVQLVESGGGLVQAGGSLRLSCAASASIGIFTVRWWRQAPGKQRALEQRELVAGISGGGTTNFADSVKGRFTISRDNDKKMVYLEMNNLKPEDTAVYYCNYLNSWGQGTQVTVSS
B13: Nb25 (VHH)
VHH: QVQLVESGGGLVQPGGSLRLSCTVSGIILGSRAMGWYRQTPGKQREFVATISTSGGTTNYADSVKGRFTISRDNAKNTVYLQMNSLKPEDTAIYYCNTLSQVLADRGWGQGTQVTVSS
B14: Nb26 (VHH)
VHH: QVQLVESGGGLVRPGGSLRLSCTVSGIMFGSRAMGWYRQTPGKQRDFVATISTSGGTTNYADSVKGRFTISRDSAKNTVYLQMNSLKPEDTAVYYCNTVSAVLLDRGWGQGTQVTVSS
B15: Nb21 (VHH)
VHH: QVQLVESGGGLVQAGDSLRLSCAASGRTFSNYGIGWFRQAPGKEREFVARVAWSTAITKYADAVKGRFTISRDNAKNMVYLQMNSLKPEDTAVYYCAAGKYGTAWITISGYDFWGQGTQVTVSS
B16: Nb22 (VHH)
VHH: QVQLVESGGGLVQPGGSLRLSCAASGTSFSTNVMGWYRQAPGKQRELVARILGGSSTYYADSVKGRFTISRDNDKNTLYLQMNSLKPEDTAVYYCTAGFGPGYWGQGTQVTVSS
B17: Nb23 (VHH)
VHH: QVQLVESGGGLVQPGGSLRLSCAASGTSFSTNVMGWYRQAPGKQRELVARMLGGSSTYYADSVKGRFTISRDNAKNTVYLQMNSLKPEDTAVYYCAAGFGPGYWGQGTQVTVSS
B18: Nb19 (VHH)
VHH: QVQLVESGGGLVQAGGSLRLSCAASGRTFSSYKMGWFRQAPGKEREFVAAFSWTGLNTNYADSVKGRFTISRDNAKSTVYLQMNSLKPEDTAVYYCAAGLGRTVIAGVDYWGQGTQVTVSS
B19: Nb28 (VHH)
VHH: QVQLVESGGGLVQTGGSLNLSCAPFGTVLSDNDVGWYRQAPGSQRELVAEVDVRGGTNYADSVKGRFTISRDSAKKITFLQMNSLKSEDTAVYYCASDYGLGLLVGLPEYRGQGTQVTVSS
B20: Nb27 (VHH)
VHH: QVQLVESGGGLVQAGGSLKLSCAAPGWTVSISYMGWFRQAQGKEREFVGAMSWSDDRISYADSVKGRFTISRDNAKTTVFLQMTSLKPEDTAVYYCAVRRKWSESYDYWGQGTQVTVSS
B21: Nb20 (VHH)
VHH: QVQLVESGGGLVQAGASLRLSCAASGRTFSSNYMGWFRQAPGKEREFVGAISWTSGSTSYADSVKGRFTISRDKAKNTVDLQMNSLNPDDTAVYYCAAGPSHRLWFSGRTLATYYDYWGQGTQVTVSS
B22: Nb15 (VHH)
VHH: QVQLVESGGGLVQAGGSLRLSCVASGILFSNNPMAWYRGAPGKQRELVARIWSGGRTIYGDSLKGRVTISRDNAKNTVYLQMNSLQPEDTAVYYCNSPYTNGWGQGTQVTVSS
B23: Nb24 (VHH)
VHH: QVQLVESGGGLVQDGGSLRLSCAASGLTFSSLPMGWFRQAPGKEREFVAAMNWGEISTYYADSVKGRFTISRDNGKKTVYLQMNSLKPEDTAVYTCAADLRYSNLKYSRAGYWGQGTQVTVSS
B24: Nb14 (VHH)
VHH: QVQLVESGGGLVQAGDSLRLSCAASARTFSIHAMGWFRQAPGKEREFVAAIGWTGGSPDYSDSAKGRFAISRDNAKNTVFLQMNSLKPEDTAVYYCAFHRAGSYDSTTSYDYWGQGTQVTVSS
B25: Nb16 (VHH)
VHH: QVQLVESGGGLVQAGGSLRLSCAASGRTVSSKAMGWYRQAPGKQRELVASISTSGSTTVYADSVKGRFTISRDNAKATVYLRMNMLKPEDTAVYYCNYLVGPIDWGQGTQVTVSS
B26: Nb17 (VHH)
VHH: QVQLVESGGGLVQAGGSLRLSCAASGRTVSSKAMGWYRQAPGKQRELVASISTSGSTTNYADSVKGRFTISRDNAEAPVYLQMNMLKPGDTAVYYCNYLVGPADWGQGTQVTVSS

Chain of anti-S100B nanobody Nb12 (llama) (heavy, as listed by the source): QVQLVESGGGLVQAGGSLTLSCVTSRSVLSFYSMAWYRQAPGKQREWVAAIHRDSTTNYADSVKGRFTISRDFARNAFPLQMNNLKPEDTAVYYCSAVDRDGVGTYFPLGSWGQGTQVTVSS

One assay addresses anti-S100B nanobody Nb12 (llama). The assay can be described thus: BLI; Nbs (20 μg/ml) loaded on Ni-NTA biosensor; S100B dimer or tetramer 25-250 nM in solution; 25 °C; 50 mM Tris-HCl pH 7.4, 150 mM NaCl; global 1:1 fit.
As for B1, the Kd (usually the concentration at which binding is half-saturated) stood at 4 µM.

In a further assay the target is tetrameric S100B (human, recombinant) (human, UniProt P04271).
Assay: not given
On to B2, for which the binding result is reported as “binds”. Still for that read-out and setting: the value for B3 was “binds”; that for B4 was “binds”; that for B5 was “binds”. B6: the binding result is on record as “binds”. On to B7, for which the binding result is “binds”. Take B8: the binding result is recorded as “binds”. Take B9: the binding result was “binds”. The same measure, in the same setting: the value for B10 was “binds”; that for B11 was “binds”. Same read-out and setting: the value for B12 was “binds”.

In the next assay the target is dimeric S100B (human, recombinant) (Homo sapiens, UniProt P04271).
Assay: not given
For the molecule B13, the binding result is recorded as “binds”. Regarding B14, the binding result is reported as “binds”. Regarding B15, the binding result was “binds”. Consider B16, for which the binding result is recorded as “binds”. The same measure, in the same setting: in the case of B17 it was “binds”; in that of B18, “binds”; in that of B19, “binds”. For the molecule B20, the binding result is “binds”. With B21, the binding result was “binds”. Still for that read-out and setting: the value for B22 was “binds”. Same read-out and setting: in the case of B23 it was “binds”; in that of B24, “binds”; in that of B25, “binds”.

Regarding B26, the binding result was “binds”.
